From the nanobody polyreactivity screen of Harvey et al. (2022)

Assay: yeast display, Sf9 membrane polyspecificity reagent, FACS + sequencing; frameworks hold sequencing errors
Procedure, shortened: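 After 36–48 hours of galactose induction, yeast (Saccharomyces cerevisiae BJ5465) displaying a synthetic nanobody library were stained at 4 °C for 1 hour with 10% biotinylated, detergent-solubilized Sf9 membrane reagent. Streptavidin microbeads enriched the stained cells before FACS sorting into low and high (top ~1%) gates on anti-HA and streptavidin fluorescence. Each clone's polyreactivity label reflects its gate of origin.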

Sequence | polyreactivity (PSR sort gate)
QVQLVESGGGLVQAGGSLRLSCAASGSTFYIYAMGWYRQAPGKERELVAAITEGGGITYYADSVKGRFTISRDNAKNTVYLQMISLKPEDTAVYYCADVWGYYVLPYDYWGQGTQVTVSS | low polyreactivity
QVQHVESGGGIVQAGGSLRLSCAASGSIFYQYAMGWYRQSPGKERELVAASSRSGGSTYYADSVKGRFTISRHNAKNTVYLQMNSLKPEDTAVYYCAARAVRAAYDYWGQGTQVTVSS | low polyreactivity
QVQLLESGGGLVQAGGSLRLSCAASGIIFLDNAMGWYRQAPGKERELVADITSSGGSTYYADSVKGRFTISRDNAKNTVSLQMNSLKPEDTAVYYCAATRPSYNDAESDYWGQGTQVTVSS | low polyreactivity
QVQLVESGGGLVQAGGSLRLSCAASGRIFSGNAMGWYRQAPRKERELVAAISRGGSTDYADSVKGRFTISRDNAKNTVYLQMNSLKPEDTAVYYCSARVNGKRRRYDYWGQGTQVTVSS | high polyreactivity
QVQLVESGGGLVQAGGSLRLSCAASGLTFDYYAMGWYRQAPGKERELVAAISIGGSTNYADSVKGRFTISRDNAKNTVYLQMNSLKPEDTAVYYCNAEFAPWGSAYGHDQYDYWGQGTQVTVSS | low polyreactivity
QVQLVESGGGLVQAGGSLRLSCAASGSIFRPNAMGWYRQAPGKERELVAAITWSGDSTYYADSVKGRFTISRDNAKNTVYLQMNSLKPEDTAVYYCAKYSLVFYISLYGYWGQGTQVTVSS | low polyreactivity
QVQLVESGGGLVQAGGSLRLSCAASGFTFRYYAMGWYRPAPGKERELVATISRGGSTNYADSVKGRFTISRDNAKNTVYLQMNSLKPEDTAVYYCNARIYKGYNYWGQGTQVTVSS | high polyreactivity
QVQLVESGGGLVQAGGSLRLSCAASGSTFGTYAMGWYRQAPGKERELVAAISRRGGSTYYADSVKGRFTISRDNAKNTVYLQMNSLKTEDTAVYYCAARKFHPDDNYWGQGTQVTVSS | high polyreactivity
QVQLVDSGGGLVQAGGRLRLSCAPSGLTFARNAMGWYIQAPGKERELVAAISRSGGRTSYADSVKGRFTISRDIAKNTVYVQMNSLKPVDTAVYYCAARSDVYSHDYWGQGTQVTVSS | high polyreactivity
QVQLVESGAGLVQAAGSLRLICASSGFILLDKAMGWYRQAPGKEREFVASINISGARTFYADSVKGRFTISRDTAKNTVYLQMNSLKPEDTAVYYCAKEPGWGRRSTTAYDYWGQGTQVTVSS | low polyreactivity
QVQLVESGGGLVQAGGSLRLSCAASGSIFVINPMGWYRPAPGKERELVATIRARAGSTYYADSVKGRFTISRDNAKNSVYLQMNSLKPEDTAVYYCAARLKSYRVDYWGQGTQVTVSS | high polyreactivity
QVQHVESAGGLVQEAGSLRLRCAASGSTFYSYAMGWSRQAPGKERELVAAISRSGGRTNYADSVKGRFTISRDIAKNTVYLQMNSLKPEDTAVYYCNARHYLSAYDYWGQGTQVTVSS | high polyreactivity
QVQLEESGGGLVQAGGSLRLSCAASGSTFRRYTMGWYRQAPGKERELVAAITRGGSTYYADSVKGRFTISRDNAKNTVYLQMNSLKPEDTAVYYCAVKYFTAFRLRGDYWGQGTQVTVSS | high polyreactivity
QVQLVESGGGLVQAGGSLRLSCAASGRTFIGYAMGWYRQAPGKERELVAAITSSGGSTYYSDSVKGRFTISRDNAKNTVYLQMNSLKPEDTAVYYCAAGRHSEDNYWGQGTQVTVSS | high polyreactivity
QVQLVESGGGLVQAGGSLRLSCAASGRIFPYYAMGWYRQAPGKERELVATISSGGRTNYADTVMGRFTISRDNAKNTVYLQMNSLKPEDTAVYYCAADYRKSRVFYGLYYWGQGPQVTVSS | high polyreactivity
QVQLVESGGGLVQAGGSLRLSCAASVRTFYIYAMGWYIQAHGKERELVAAITSVGSTNYADSVKGRFTISRDNAKNTVNLQMNSLKPEDTAVYYCAAESTEGTSGDYDYWGQGTQVTVSS | low polyreactivity
QVQLVESGGRLVQAGGSLRLSCAASGFIFYSYDMGWYRQAPGKERELVAAIDSRGVNTYYADSVKGRFTISRDNAKNTVYLQMNSLKPEDTAVYYCAAEVVYPVYEYDYWGQGTQVTVSS | low polyreactivity
